experiment: soluble on expression in E. coli; label from the status in PepcDB or PDB records

Sequence	soluble on expression in E. coli
MSQRKAQNDYQKIIRSLSDRIVEAQTPIRVLDAIKWDDGIRQDFLKGRGKHAPKVDRGYYDSRPLAFDASAKKQEFQNIERDITRQLGQFNPVGQIMRRMCKEYRMVIRMLEARGTPDLGLISQELYGSASDAFHAGDPTLADLGLMLSDYLNNIADRGDLKDEPKTLTAKEVVPILQARLNTVFGEEEGTIRVFESDGIVADAAAGADYIKVRADALFNERDVRALEVHEGLVHVGTTLNGLSQPICTFLAKGPPSSTVTQEGLAILMEVIAFASYPTRLRKLTNRTRAIHMAEEGADFLDVFHFYREQGYSLEDSYQNASRVFRGSTPDGLPFTKDLSYLKGFILIYNYIQLAVRKGKLEQIPLLFCGKTTLEDMRTLRQLVDEGLVAPPKYLPPQFRDLNALSAWMCFSNFLNHLSLDRIEADYANILAAALEHHHHHH	not soluble
SPAPPACDLRVLSKLLRDSHVLHSRLSQCPEVHPLPTPVLLPAVDFSLGEWKTQMEETKAQDILGAVTLLLEGVMAARGQLGPTCLSSLLGQLSGQVRLLLGALQSLLGTQLPPRGRTTAHKDPNAIFLSFQHLLRGKVRFLMLVGGSTLCVRRAPPTTAVPS	soluble
MGHHHHHHDTDIPTTENLTFQGACRLVANCRDVRCRRLLRNVMPVAGSELPRRPLPPAAQERDAEPRPPHGELQYLGQIQHILRCGVRKDDRTGTGTLSVFGMQARYSLRDEFPLLTTKRVFWKGVLEELLWFIKGSTNAKELSSKGVKIWDANGSRDFLDSLGFSTREEGDLGPVYGFQWRHFGAEYRDMESDYSGQGVDQLQRVIDTIKTNPDDRRIIMCAWNPRDLPLMALPPCHALCQFYVVNSELSCQLYQRSGDMGLGVPFNIASYALLTYMIAHITGLKPGDFIHTLGDAHIYLNHIEPLKIQLQREPRPFPKLRILRKVEKIDDFKAEDFQIEGYNPHPTIKMEMAV	soluble
MSDRVIIAGGGIGGLASALTLHQIGVPCVVYEAAREMRPLGVGINLQPNAVRELLDLGITEADLDGVGLPAKEWALVGLNGNDIYAEPRGKAAGYRWPQYAVHRGRFHMLLNDKVIERLGADAVQLGRRVTSYRKTADGVVATVEHADGGTSEVSGALLIGADGIHSAVRAQMHPNQPPIHWGGAVMWRGTTWGKPTRSGASFIGLGTHRHRVVIYPISHPDPATGLSMLNWIAEVTLDNAEGWKQQGWFRQVPTSEFAHHFDGWVWDWLDVPAMIREADSAYENPMIDRDPVATWRDGPVVLIGDAAHAMYPTGSNGGTQAIVDARELGAAMVAHGATEAALAAFDAKLCGPISQLILRNRGAGPFGLLNLVDERCGGTFDNIDDVIPPAERAAFMAGYKAAAGFAIDHLNAAPPTIAPGARVKESAAALEHHHHHH	not soluble
ENRLVVIVLRGAMDGLDLVRPVGDPLFATYRPRLAQDGQKGEGGVIPLSEGFVLHPLLNGLSALWRKGELGFVHAVSTPYRDKRSHFDGQDMLEAGTGPDVPPGVARDGWLNRMLQAVPGLEAETAWAIGRDPLPLMEGEAPVRVWSPDLALDLSAQNRRLLEELYHEDPLFRDVGTEALELAAKLSHGAGGEGPRDAKKDLAAIDELAAFAASQLRGAARIAAFSLSGWDTHRNQAAAIRKPLLKLQRMLLQLQAELGPVWDRTAILAMTEFGRTARENGSAGTDHGTAGAMIMAGGAIRGGRVLGRWPGLDEAALYDRRDLMPTSDVRAWAAWTMRSLYGFDRELLERSVFPGIEMREDPGLVL	not soluble
SGCFGCFSPEVDDDLKPSKPNYHSSDESSGADARRKVAPLATDGGNGYAHSFTFKDLSVATGYFNEANFIGEGGFGKVYKGKINGQMVAVKQLTRDGVQGRNEFLVEVLMLTVLNHPHLVSLVGFCAQGDERLLVYEYMPFGSLESHLFDVPLGKQPLDWNTRMRIAVGVAEGLSYLHNVADPPIIYRDMKAANILLDEDYRPKLSDFGLAKVGPVGDRTHVSTRVMGTYGYCAPDYVVSGKLTMKSDIYSFGVLLLELITGRRIYDASRPKPEQSLLTWSRPFLHDKRKFYRLADPALHGCYPTSALNQLVVISIMCLQDQPHVRPIISDVVIGLNHVASQPYVPERSSVSLSSPARCGSPQYAGTPSRRRGGRRVAQYA	soluble

Reference: the DeepSol protein solubility set
